Here are results for four substances from publication PMC7209288.

Assay [1] has as its target human C5. As to the kind of experiment: SPR; fit not_stated; antibody as IgG; antigen as monomer; on the surface: not_stated; avidity not_told. Particulars: pH 7.4; second pH 6.0. A general note: SPR reads the build-up and loss of mass on a sensor chip optically.
Assay [2] concerns the target Complement component C5 (human, wild type) (UniProt P01031). Briefly: SPR (Biacore). The settings on record: for t1/2 ratio pH7.4/pH6.0: pH 6.0-7.4, not stated (pH 7.4 and pH 6.0 compared); for KD / T1/2 (half-life of the complex): pH 7.4, 25 °C, not stated for this experiment (the 37 °C screen used 150 mM NaCl), not stated explicitly for the 25 °C runs, pH 7.4 (the 37 °C screen used HBS-EP: 10 mM Hepes).
Chain of UniProt P01031 (P01031 whole entry): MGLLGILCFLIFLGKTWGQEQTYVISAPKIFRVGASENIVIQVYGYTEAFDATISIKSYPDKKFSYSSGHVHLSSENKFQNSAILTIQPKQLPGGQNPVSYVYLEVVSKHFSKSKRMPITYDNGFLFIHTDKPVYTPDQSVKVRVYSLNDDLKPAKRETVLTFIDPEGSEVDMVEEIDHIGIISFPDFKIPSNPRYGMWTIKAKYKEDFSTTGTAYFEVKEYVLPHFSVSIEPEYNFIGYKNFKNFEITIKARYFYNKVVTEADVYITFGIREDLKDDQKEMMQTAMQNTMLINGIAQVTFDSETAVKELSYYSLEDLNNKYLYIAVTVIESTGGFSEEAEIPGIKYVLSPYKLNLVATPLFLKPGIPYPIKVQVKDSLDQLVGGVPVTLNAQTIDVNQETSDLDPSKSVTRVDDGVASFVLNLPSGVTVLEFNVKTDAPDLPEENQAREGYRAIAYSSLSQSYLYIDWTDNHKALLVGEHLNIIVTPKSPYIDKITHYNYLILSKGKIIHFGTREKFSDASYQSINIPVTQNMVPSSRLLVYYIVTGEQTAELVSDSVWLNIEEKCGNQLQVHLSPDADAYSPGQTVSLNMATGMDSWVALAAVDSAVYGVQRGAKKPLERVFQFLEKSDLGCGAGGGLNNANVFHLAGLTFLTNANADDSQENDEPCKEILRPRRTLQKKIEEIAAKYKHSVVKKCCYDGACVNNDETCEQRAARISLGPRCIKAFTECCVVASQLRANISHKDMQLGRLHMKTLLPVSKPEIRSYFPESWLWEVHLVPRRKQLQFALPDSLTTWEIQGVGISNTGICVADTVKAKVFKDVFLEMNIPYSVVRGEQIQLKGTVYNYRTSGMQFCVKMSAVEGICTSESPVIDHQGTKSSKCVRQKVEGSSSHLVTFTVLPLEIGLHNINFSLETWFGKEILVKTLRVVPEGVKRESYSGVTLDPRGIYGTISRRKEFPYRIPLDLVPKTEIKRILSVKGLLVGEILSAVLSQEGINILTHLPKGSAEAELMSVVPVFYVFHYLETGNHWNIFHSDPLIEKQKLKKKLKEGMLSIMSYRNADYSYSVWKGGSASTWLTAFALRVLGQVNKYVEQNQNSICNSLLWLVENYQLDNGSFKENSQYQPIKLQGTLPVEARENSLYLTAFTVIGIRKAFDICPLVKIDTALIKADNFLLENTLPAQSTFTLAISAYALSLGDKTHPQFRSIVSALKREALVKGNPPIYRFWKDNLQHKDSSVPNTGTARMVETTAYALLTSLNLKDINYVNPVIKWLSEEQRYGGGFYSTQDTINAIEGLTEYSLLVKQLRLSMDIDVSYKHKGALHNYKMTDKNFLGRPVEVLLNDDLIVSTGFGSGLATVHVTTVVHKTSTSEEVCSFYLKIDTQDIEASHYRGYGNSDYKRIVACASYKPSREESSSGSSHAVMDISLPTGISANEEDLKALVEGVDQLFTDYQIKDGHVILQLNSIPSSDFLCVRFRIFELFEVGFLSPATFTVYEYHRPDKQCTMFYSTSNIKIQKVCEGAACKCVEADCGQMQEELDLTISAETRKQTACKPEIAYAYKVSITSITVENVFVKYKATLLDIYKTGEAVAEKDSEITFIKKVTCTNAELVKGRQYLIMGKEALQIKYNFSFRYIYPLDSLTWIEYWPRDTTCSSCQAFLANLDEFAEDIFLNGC

Assay [3] has the same target. As to the kind of experiment: SPR (Biacore T200, CM4 chip). The settings on record: pH 7.4, 37 °C, 150 mM NaCl, HBS-EP: 10 mM Hepes.

As usually defined, the KD is the equilibrium constant for the complex coming apart. A higher KD goes with lower affinity.

REGN3918: in assay [1], the t1/2 ratio of binding hC5 at pH7.4/pH6.0 turned out to be 3.8.

For the substance “REGN3918 (pozelimab), anti-human C5 monoclonal antibody S228P (EU numbering, IgG4 hinge)”, in assay [2], the “t1/2 ratio pH7.4/pH6.0” value is “t1/2 ratio of binding hC5 at pH7.4/pH6.0 = 3.8”, the KD was found to be 0.189 nM and the T1/2 (half-life of the complex) turned out to be 1.03 h. Moreover, in assay [3], the KD was 0.262 nM and the T1/2 (half-life of the complex) turned out to be 0.833 h.

As for “In-house eculizumab, anti-human C5 monoclonal antibody”, in assay [2], the “t1/2 ratio pH7.4/pH6.0” value was “t1/2 ratio of binding hC5 at pH7.4/pH6.0 = 5.2”, the KD is 0.301 nM and the T1/2 (half-life of the complex) amounted to 1.72 h.

In-house eculizumab: the t1/2 ratio of binding hC5 at pH7.4/pH6.0 in assay [1] worked out at 5.2.
